# Test: HRP enzymatic activity detected with chromogenic substrate
# Assay type: biochemical
# Settings: after silk processing and collagenase digestion
# Experimental: The release kinetics of HRP from silk fibroin microneedles into the collagen hydrogels (N=3) were determined spectroscopically. The collagen hydrogel was selectively digested with collagenase. Subsequently, a colorimetric HRP enzyme activity assay was carried out as described later in the Exemplary Materials and Methods (FIG. 9C). […] Compared to the 2 hour and 8 hour water annealed devices, the untreated silk microneedles released in the same time period about 2.7±0.18 and about 5.6±0.99 times as much HRP, respectively. The beta sheet content in the silk fiborin microneedle samples was determined, e.g., by infrared spectroscopy, with results of ˜14%, ˜18% and ˜21% for the untreated, 2 hr-annealed and 8 hr-annealed silk fibroin microneedle samples, respectively. […]
# HRP release model: The silk fibroin microneedles were loaded with 1 mg/ml of HRP (Sigma Aldrich). […] The collagen or gelatin slab measured approximately 2.5 mm in height. […] The needles were pierced through Parafilm (Parafilm M, Pechiney Plastic Packaging) membranes (polymer membrane in FIG. 8A) and subsequently applied to the hydrogel slabs to quantify the HRP release. […] To quantify the total amount of HRP release from the silk fibroin microneedles, a plurality of stacks, each of which included an array of silk fibroin microneedles, a polymer membrane and a collagen hydrogel, were prepared and evaluated at multiple time points. […]
substance,measurement,value
horseradish peroxidase [HRP],enzymatic activity of HRP,retained activity

# — patent US12194200B2, “Silk fibroin-based microneedles and methods of making the same” (Trustees of Tufts College, priority 2010, dated 2025)
